# Assay results as given in patent publication US20030091990A1, “Methods and compositions involving thymidine phosphorylase as a marker for HIV infection, aids progression, and drug resistance” (priority 2001, published 2003).
# B1: IL-16: IL-16 (10 ng/ml) incubated with resting CD4+ T lymphocytes (protein, UniProt Q14005 1212-1332, looked up)
# Interleukin-16: SAASASAASDVSVESTAEATVCTVTLEKMSAGLGFSLEGGKGSLHGDKPLTINRIFKGAASEQSETVQPGDEILQLGGTAMQGLTRFEAWNIIKALPDGPVTIVIRRKSLQSKETTAAGDS
# Tested on: resting CD4+ T lymphocytes
# Experiment: Affymetrix GeneChip Expression Analysis of resting CD4+ T lymphocytes
# Assay type: cell-based
# Settings: incubated 3 hrs at 37° C.; Human Genome U95A chips; fold changes from +2.0 to -2.0 removed; comparison with Mock control
# Protocol: To investigate the changes in RNA expression of resting CD4+ T lymphocytes by HIV-1, Affymetrix GeneChip® Expression Analysis was done. Purified resting CD4+ T lymphocytes (purity of >98%) prepared from a healthy donor by StemCell™ magnetic column technique were incubated with HIV-1213 ((M.O.I. 0.5-1), IL-16 (10 ng/ml), or MHC II peptide (50 μM, RK1) in a 37° C. humidified 5% CO2 incubator for 3 hrs). Then, total cytoplasmic RNA was extracted by using RNA isolation kit (Qiagen) according to the manufacturer's instructions. Isolated RNA was applied on the Human Genome U95A chips, containing 12,626 full-length genes (Affymetrix, Santa Clara, Calif.). Data were generated from hybridization intensities measured on GeneChip expression probe arrays and analyzed by GeneChip software provided by Affymetrix. In order to compare gene expression levels between two samples (Mock, HIV213, IL-16 and MHC II peptide), Comparison Analysis was performed on data from two separate probe array experiments by determining the relative changes in abundance for each transcript. All moderate increase, moderate decrease and no change were removed. All fold changes from +2.0 to −2.0 were also removed. […] TP (PDECGF) was one of the molecules that have shown great change in its mRNA level when CD4 T cells were signalled with HIV (48 fold change). […]
molecule,measurement,value
B1,genes changed vs. Mock,84 genes
